Reference: PMC3469841

Key:
[1] = target: Stefin B construct (C3S, with glutamate polymorph at position 31) (human) (UniProt P04080); experiment: NMR (2D 1H15N HSQC amide peak intensities); apparent ratio of monomer to dimer from peaks of Q71, L73 and E76; fibrillization conditions, pH 4.7 and 10% TFE, 15 mM sodium acetate, 25°C; dimer to monomers
[2] = target: Stefin B construct (C3S, with glutamate polymorph at position 31) (human) (UniProt P04080); experiment: NMR (2D 1H15N HSQC amide peak intensities); apparent ratio of monomer to dimer from peaks of Q71, L73 and E76; pH 6.0, 0% TFE; 200 uM 15N protein (monomer equivalents), 100 mM NaCl, 25°C; dimer to monomers; the paper says the two species never reach equilibrium
[3] = target: P79S stefin B variant (human) (UniProt P04080); experiment: SEC; KW-803 column (Shodex), HPLC with UV detection; 15 mM sodium acetate, 150 mM NaCl, 1 mM NaN3, pH lowered to 4.7; tetramer to dimers and monomers
[4] = target: P79S stefin B variant (human) (UniProt P04080); experiment: SEC; KW-803 column (Shodex), HPLC with UV detection; 50 mM sodium phosphate, 100 mM NaCl, pH 7, 1 mM NaN3

ratio of monomer to dimer (monomer:dimer) [1]	ratio of monomer to dimer (monomer:dimer) [2]	stoichiometry N [3]	stoichiometry N [4]	Substance
2	1			Stefin B construct (C3S, with glutamate polymorph at position 31) (from UniProt P04080 4-98) (natural protein)
		2	4	P79S stefin B variant (from UniProt P04080 1-98) (natural protein)
